Measured values: PMC2707180 (Nature structural & molecular biology, 2008)
Numbering of substitutions follows the chain as printed. Numbers in names are those of the source.

B1: GST-tagged C-terminal fragment of Prp8 (1806-2413 aa) (domain or fragment)
chain: MKANPALYVLRERIRKGLQIYQSSVQEPFLNSSNYAELFNNDIKLFVDDTNVYRVTVHKTFEGNVATKAINGCIFTLNPKTGHLFLKIIHTSVWAGQKRLSQLAKWKTAEEVSALVRSLPKEEQPKQIIVTRKAMLDPLEVHMLDFPNIAIRPTELRLPFSAAMSIDKLSDVVMKATEPQMVLFNIYDDWLDRISSYTAFSRLTLLLRALKTNEESAKMILLSDPTITIKSYHLWPSFTDEQWITIESQMRDLILTEYGRKYNVNISALTQTEIKDIILGQNIKAPSVKRQKMAELEAARSEKQNDEEAAGASTVMKTKTINAQGEEIVVVASADYESQTFSSKNEWRKSAIANTLLYLRLKNIYVSADDFVEEQNVYVLPKNLLKKFIEISDVKIQVAAFIYGMSAKDHPKVKEIKTVVLVPQLGHVGSVQISNIPDIGDLPDTEGLELLGWIHTQTEELKFMAASEVATHSKLFADKKRDCIDISIFSTPGSVSLSAYNLTDEGYQWGEENKDIMNVLSEGFEPTFSTHAQLLLSDRITGNFIIPSGNVWNYTFMGTAFNQEGDYNFKYGIPLEFYNEMHRPVHFLQFSELAGDEELEAEQIDVFS
B2: GST-tagged Prp8-CTF with the RP mutation F2382L (domain or fragment)
chain: B1 chain with F577L
B3: GST-tagged Prp8-CTF with the RP mutation R2388K (domain or fragment)
chain: B1 chain with R583K

What follows are binders tested against full-length Brr2 with C-terminal calmodulin-binding domain (S. cerevisiae, UniProt P32639 1-2163) (assay: pull-down).
full-length Brr2 with C-terminal calmodulin-binding domain, sequence (P32639 whole entry, the tested form may be a part): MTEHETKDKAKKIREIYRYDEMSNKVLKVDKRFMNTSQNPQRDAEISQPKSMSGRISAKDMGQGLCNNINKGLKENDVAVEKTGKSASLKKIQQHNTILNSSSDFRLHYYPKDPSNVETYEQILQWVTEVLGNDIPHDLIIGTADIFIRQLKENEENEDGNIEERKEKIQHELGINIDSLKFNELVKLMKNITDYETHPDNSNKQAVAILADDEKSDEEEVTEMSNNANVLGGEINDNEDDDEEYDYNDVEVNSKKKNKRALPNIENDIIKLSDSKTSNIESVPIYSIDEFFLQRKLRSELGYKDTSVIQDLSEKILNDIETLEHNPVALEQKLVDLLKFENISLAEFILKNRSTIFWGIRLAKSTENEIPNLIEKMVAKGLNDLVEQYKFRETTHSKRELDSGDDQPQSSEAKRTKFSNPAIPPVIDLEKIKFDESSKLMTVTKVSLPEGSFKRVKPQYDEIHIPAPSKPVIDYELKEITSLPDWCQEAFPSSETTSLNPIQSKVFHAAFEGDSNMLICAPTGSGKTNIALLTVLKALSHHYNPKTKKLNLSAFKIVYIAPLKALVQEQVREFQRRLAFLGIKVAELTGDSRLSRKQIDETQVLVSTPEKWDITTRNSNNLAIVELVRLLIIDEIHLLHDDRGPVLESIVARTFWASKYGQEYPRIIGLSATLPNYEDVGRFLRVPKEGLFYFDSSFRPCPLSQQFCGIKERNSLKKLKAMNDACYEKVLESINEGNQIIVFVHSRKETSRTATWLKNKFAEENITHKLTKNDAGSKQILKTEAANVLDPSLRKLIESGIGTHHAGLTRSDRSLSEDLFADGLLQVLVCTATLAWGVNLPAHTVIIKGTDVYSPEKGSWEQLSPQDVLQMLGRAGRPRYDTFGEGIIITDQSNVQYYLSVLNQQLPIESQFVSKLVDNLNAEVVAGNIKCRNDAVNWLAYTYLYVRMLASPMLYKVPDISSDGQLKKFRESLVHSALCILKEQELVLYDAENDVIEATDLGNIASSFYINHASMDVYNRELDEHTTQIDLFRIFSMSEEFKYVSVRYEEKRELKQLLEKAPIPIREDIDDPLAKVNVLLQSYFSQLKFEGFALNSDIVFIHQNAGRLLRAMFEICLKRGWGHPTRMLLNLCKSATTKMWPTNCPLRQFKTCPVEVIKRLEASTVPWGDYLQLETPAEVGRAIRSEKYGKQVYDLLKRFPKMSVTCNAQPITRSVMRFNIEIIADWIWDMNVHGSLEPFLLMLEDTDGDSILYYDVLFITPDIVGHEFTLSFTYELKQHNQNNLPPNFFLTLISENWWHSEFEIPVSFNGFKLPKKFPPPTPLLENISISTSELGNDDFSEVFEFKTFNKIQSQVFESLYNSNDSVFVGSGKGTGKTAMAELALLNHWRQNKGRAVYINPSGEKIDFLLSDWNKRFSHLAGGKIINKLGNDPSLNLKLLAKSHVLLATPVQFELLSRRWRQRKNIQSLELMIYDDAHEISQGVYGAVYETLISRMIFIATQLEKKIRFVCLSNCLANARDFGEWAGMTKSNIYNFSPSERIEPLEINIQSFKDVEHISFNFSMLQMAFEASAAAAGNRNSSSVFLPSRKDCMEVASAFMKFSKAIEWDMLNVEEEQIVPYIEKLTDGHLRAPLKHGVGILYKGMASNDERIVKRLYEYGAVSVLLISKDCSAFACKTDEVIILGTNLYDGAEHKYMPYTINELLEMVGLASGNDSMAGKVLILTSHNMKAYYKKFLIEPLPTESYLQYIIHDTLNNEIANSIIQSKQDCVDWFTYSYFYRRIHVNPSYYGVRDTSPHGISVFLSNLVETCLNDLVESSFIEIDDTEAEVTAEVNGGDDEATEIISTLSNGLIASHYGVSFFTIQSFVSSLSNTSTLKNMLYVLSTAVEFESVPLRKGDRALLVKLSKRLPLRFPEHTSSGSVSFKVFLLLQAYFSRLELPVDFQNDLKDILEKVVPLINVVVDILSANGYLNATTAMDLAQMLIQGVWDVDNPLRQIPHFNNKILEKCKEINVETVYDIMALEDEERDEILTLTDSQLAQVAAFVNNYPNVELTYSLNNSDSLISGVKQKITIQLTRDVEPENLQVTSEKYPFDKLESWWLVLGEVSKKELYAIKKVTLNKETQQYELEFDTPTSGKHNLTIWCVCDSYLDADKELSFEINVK

| Binder | binding result |
| --- | --- |
| B1 | binds |
| B2 | binds |
| B3 | binds |
